± gives the standard deviation of the averaged measurements.
Columns and labels:
Saccharomyces cerevisiae [1] = experiment: protein stability index of tFT-peptide fusion (C-terminal peptide) (PSI (0-1 scale)); higher = more stable (slower turnover)
Method: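 MPS profiling in S. cerevisiae of the tFT-X12 degron library: putative degron peptides plus stable controls, 12 aa, fused to the C-terminus of a sfGFP-mCherry timer. Cells are FACS-sorted into 8 mCherry/sfGFP bins and deep-sequenced. PSI runs from 0 (unstable) to 1 (stable). Backgrounds are wild type, das1Δ and doa10Δ at 30 °C, and wild type, das1Δ, cdc34-1 and cdc53-1 at 37 °C; 2-3 technical replicates each.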

Saccharomyces cerevisiae [2] = experiment: as above; details: genetic background: wild type; temperature: 30 C
[3] = genetic background: cdc34-1, temperature: 37 C
[4] = genetic background: cdc53-1, temperature: 37 C
[5] = genetic background: das1 deletion, temperature: 30 C
[6] = genetic background: das1 deletion, temperature: 37 C
[7] = genetic background: doa10 deletion, temperature: 30 C
[8] = genetic background: wild type, temperature: 30 C
[9] = genetic background: wild type, temperature: 37 C
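Also: PSI is a weighted mean of sequencing reads over stability bins, variants kept only with over 10 reads, mCherry proximal and sfGFP distal, peptide attached via GGGS linker.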

| Sequence | protein stability index (Saccharomyces cerevisiae [1]; [3]) | protein stability index (Saccharomyces cerevisiae [1]; [4]) | protein stability index (Saccharomyces cerevisiae [1]; [5]) | protein stability index (Saccharomyces cerevisiae [1]; [6]) | protein stability index (Saccharomyces cerevisiae [1]; [7]) | protein stability index (Saccharomyces cerevisiae [1]; [8]) | protein stability index (Saccharomyces cerevisiae [1]; [9]) | protein stability index (Saccharomyces cerevisiae [2]) |
| --- | --- | --- | --- | --- | --- | --- | --- | --- |
| CVGRPIALAVRT | 0.52676 ± 0.0004 | 0.519 ± 0.048 | 0.375 ± 0.04 | 0.56 ± 0.0093 | 0.338 ± 0.025 | 0.38 ± 0.028 | 0.51959 ± 0.00012 | 0.511 ± 0.022 |
| CVLLRPGFLVLV | 0.1771 ± 0.0015 | 0.148 ± 0.011 | 0.207 ± 0.021 | 0.278 ± 0.013 | 0.2144 ± 0.0018 | 0.166 ± 0.014 | 0.216 ± 0.016 | 0.234 ± 0.011 |
| CVYGILLLVDVR | 0.0231 ± 0.00051 | 0.0547 ± 0.039 | 0.106 ± 0.032 | 0.128 ± 0.005 | 0.0714 ± 0.034 | 0.0971 ± 0.018 | 0.143 ± 0.066 | 0.189 ± 0.0074 |
| CWDNTLKTMRQM | 0.67 ± 0.0063 | 0.732 ± 0.022 | 0.655 ± 0.042 | 0.7322 ± 0.0059 | 0.307 ± 0.015 | 0.333 ± 0.018 | 0.5969 ± 0.0032 | 0.228 ± 0.1 |
| CWLFCACFVRLV | 0.125 ± 0.014 | 0.154 ± 0.0052 | 0.211 ± 0.019 | 0.333 ± 0.015 | 0.0691 ± 0.0032 | 0.0636 ± 0.0022 | 0.07618 ± 0.00043 | 0.101 ± 0.0076 |
| CYFLFFLSYSLE | 0.237 ± 0.0066 | 0.343 ± 0.045 | 0.231 ± 0.05 | 0.455 ± 0.019 | 0.194 ± 0.039 | 0.226 ± 0.029 | 0.439 ± 0.0046 | 0.297 ± 0.0097 |
| CYTGYMYKLLVG | 0.507 ± 0.054 | 0.547 ± 0.01 | 0.48 ± 0.031 | 0.59019 ± 0.00036 | 0.2458 ± 0.00076 | 0.243 ± 0.027 | 0.423 ± 0.015 | 0.346 ± 0.027 |
| DFHLPWPVALVW | 0.134 ± 0.02 | 0.144 ± 0.016 | 0.217 ± 0.018 | 0.277 ± 0.0039 | 0.188 ± 0.0067 | 0.208 ± 0.026 | 0.24 ± 0.013 | 0.387 ± 0.039 |

From the supplement of paper PMC10724198
